In article PMC8938434, “Atomic resolution dynamics of cohesive interactions in phase-separated Nup98 FG domains” (Nature Communications, 2022):

T1: prf.GLFG_(52 × 12)
T1 construct: engineered from the Tetrahymena thermophila MacNup98A FG domain; plasmid pSNG064; Isotope-labelled (15N, 13C) for NMR; also called perfect repeat; source: E. coli, inclusion bodies, Ni(II) chelate column, tag cut off with bdSENP1 protease, lyophilized; not shown: His14-ZZ-scSUMO, N-terminal, cleaved
T1 chain: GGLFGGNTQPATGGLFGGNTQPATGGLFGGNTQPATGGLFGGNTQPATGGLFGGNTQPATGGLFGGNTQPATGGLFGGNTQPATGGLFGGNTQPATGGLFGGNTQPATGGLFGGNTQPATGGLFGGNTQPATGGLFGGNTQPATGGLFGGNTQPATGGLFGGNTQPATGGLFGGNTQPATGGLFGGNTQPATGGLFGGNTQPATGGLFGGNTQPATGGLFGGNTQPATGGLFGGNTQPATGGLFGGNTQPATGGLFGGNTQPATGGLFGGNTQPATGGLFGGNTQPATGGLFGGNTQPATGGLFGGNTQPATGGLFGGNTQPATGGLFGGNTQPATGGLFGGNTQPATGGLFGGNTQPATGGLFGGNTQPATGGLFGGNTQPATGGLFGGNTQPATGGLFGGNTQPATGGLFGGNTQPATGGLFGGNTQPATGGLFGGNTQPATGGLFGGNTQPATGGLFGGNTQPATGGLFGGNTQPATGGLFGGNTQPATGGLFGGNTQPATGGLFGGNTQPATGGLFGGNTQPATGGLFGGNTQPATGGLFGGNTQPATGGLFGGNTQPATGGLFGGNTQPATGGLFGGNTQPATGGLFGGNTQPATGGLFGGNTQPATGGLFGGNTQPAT

B1: GLFG_(52 × 12) (other)
chain: GLFGNTGGAPAGGLFGNTQTQQGGGLFGQPQQTQGGGLFGQTGATTGGGLFGGATNTAPGGLFGGGGGNPTGGLFGGNNNQQTGGLFGQGTTQTGGGLFGAPQNNQGGGLFGGGTTTTGGGLFGANTQTGGGGLFGGPSQPTTAGLFGSNNPTTGGGLFGQPANTNNGGLFGGQTNNQASGLFGANNQPPTNGLFGNNNKPQTAGLFGGATTTGNTGLFGGANNTGGGGLFGNNTNNPTGGLFGATNPAGGGGLFGGGATTGGGGLFGGGNTQTGGGLFGTANTTTAGGLFGGGNTQPQNGLFGNNNTPATGGLFGQTNNAAPQGLFGGTNNNAASGLFGQKPASANGVLTKPNEKNLCYAISNGTDFCIFELALTQRKLVKAGQLKPGAQAGGLFGQPAQNTQGGLFGGGGAATTPGLFGGAQNNTTGGLFGGQNTQAGGGLFGAPNNAAATGLFGAGNANTQGGLFGAKPAATGGGLFGQPAQTQAGGLFGNTAQPAGGGLFGGATTTPGGGLFGGNTAATGGGLFGGNTQGATGGLFGGQQPNNQGGLFGNTNANTGGGLFGGATTTTGGGLFGGSTGATGGGLFGGASQPAAGGLFGGAAPQQNSGLFGGATAGQTGGLFGGATQQQGGGLFGQTASNPGGGLFGAANATTQPGLFGGNNQAATSC
B2: Atto488-coupled GXFG//L_(52 × 12) (other)
chain: GSGGFGNTGLAPAGGTFGNTQLQQGGGQFGQPQLTQGGGAFGQTGLTTGGGNFGGATLTAPGGGFGGGGLNPTGGNFGGNNLQQTGGTFGQGTLQTGGGNFGAPQLNQGGGTFGGGTLTTGGGQFGANTLTGGGGQFGGPSLPTTAGPFGSNNLTTGGGNFGQPALTNNGGNFGGQTLNQASGQFGANNLPPTNGKFGNNNLPQTAGTFGGATLTGNTGNFGGANLTGGGGNFGNNTLNPTGGPFGATNLAGGGGTFGGGALTGGGGTFGGGNLQTGGGTFGTANLTTAGGTFGGGNLQPQNGTFGNNNLPATGGNFGQTNLAAPQGNFGGTNLNAASGAFGQKPLSANGVLTKPNEKNLCYAISNGTDFCIFELALTQRKLVKAGQLKPGAQAGGQFGQPALNTQGGAFGGGGLATTPGNFGGAQLNTTGGTFGGQNLQAGGGNFGAPNLAAATGAFGAGNLNTQGGAFGAKPLATGGGQFGQPALTQAGGQFGNTALPAGGGTFGGATLTPGGGAFGGNTLATGGGQFGGNTLGATGGPFGGQQLNNQGGAFGNTNLNTGGGTFGGATLTTGGGGFGGSTLATGGGQFGGASLPAAGGPFGGAALQQNSGAFGGATLGQTGGQFGGATLQQGGGSFGQTALNPGGGAFGAANLTTQPGQFGGNNLAATTSC
modifications: Atto488 (coupled)
B3: GXFG//V_(52 × 12) (other)
chain: GGFGNTGVAPAGGTFGNTQVQQGGGQFGQPQVTQGGGAFGQTGVTTGGGNFGGATVTAPGGGFGGGGVNPTGGNFGGNNVQQTGGTFGQGTVQTGGGNFGAPQVNQGGGTFGGGTVTTGGGQFGANTVTGGGGQFGGPSVPTTAGPFGSNNVTTGGGNFGQPAVTNNGGNFGGQTVNQASGQFGANNVPPTNGKFGNNNVPQTAGTFGGATVTGNTGNFGGANVTGGGGNFGNNTVNPTGGPFGATNVAGGGGTFGGGAVTGGGGTFGGGNVQTGGGTFGTANVTTAGGTFGGGNVQPQNGTFGNNNVPATGGNFGQTNVAAPQGNFGGTNVNAASGAFGQKPVSANGVLTKPNEKNLCYAISNGTDFCIFELALTQRKLVKAGQLKPGAQAGGQFGQPAVNTQGGAFGGGGVATTPGNFGGAQVNTTGGTFGGQNVQAGGGNFGAPNVAAATGAFGAGNVNTQGGAFGAKPVATGGGQFGQPAVTQAGGQFGNTAVPAGGGTFGGATVTPGGGAFGGNTVATGGGQFGGNTVGATGGPFGGQQVNNQGGAFGNTNVNTGGGTFGGATVTTGGGGFGGSTVATGGGQFGGASVPAAGGPFGGAAVQQNSGAFGGATVGQTGGQFGGATVQQGGGSFGQTAVNPGGGAFGAANVTTQPGQFGGNNVAATSC
B4: Atto488-coupled GAFG_(52 × 12) (other)
chain: GSGAFGNTGGAPAGGAFGNTQTQQGGGAFGQPQQTQGGGAFGQTGATTGGGAFGGATNTAPGGAFGGGGGNPTGGAFGGNNNQQTGGAFGQGTTQTGGGAFGAPQNNQGGGAFGGGTTTTGGGAFGANTQTGGGGAFGGPSQPTTAGAFGSNNPTTGGGAFGQPANTNNGGAFGGQTNNQASGAFGANNQPPTNGAFGNNNKPQTAGAFGGATTTGNTGAFGGANNTGGGGAFGNNTNNPTGGAFGATNPAGGGGAFGGGATTGGGGAFGGGNTQTGGGAFGTANTTTAGGAFGGGNTQPQNGAFGNNNTPATGGAFGQTNNAAPQGAFGGTNNNAASGAFGQKPASANGVLTKPNEKNLCYAISNGTDFCIFELALTQRKLVKAGQLKPGAQAGGAFGQPAQNTQGGAFGGGGAATTPGAFGGAQNNTTGGAFGGQNTQAGGGAFGAPNNAAATGAFGAGNANTQGGAFGAKPAATGGGAFGQPAQTQAGGAFGNTAQPAGGGAFGGATTTPGGGAFGGNTAATGGGAFGGNTQGATGGAFGGQQPNNQGGAFGNTNANTGGGAFGGATTTTGGGAFGGSTGATGGGAFGGASQPAAGGAFGGAAPQQNSGAFGGATAGQTGGAFGGATQQQGGGAFGQTASNPGGGAFGAANATTQPGAFGGNNQAATTSC
modifications: Atto488 (coupled)
B5: GXFG//L_(52 × 12) (other)
chain: GGFGNTGLAPAGGTFGNTQLQQGGGQFGQPQLTQGGGAFGQTGLTTGGGNFGGATLTAPGGGFGGGGLNPTGGNFGGNNLQQTGGTFGQGTLQTGGGNFGAPQLNQGGGTFGGGTLTTGGGQFGANTLTGGGGQFGGPSLPTTAGPFGSNNLTTGGGNFGQPALTNNGGNFGGQTLNQASGQFGANNLPPTNGKFGNNNLPQTAGTFGGATLTGNTGNFGGANLTGGGGNFGNNTLNPTGGPFGATNLAGGGGTFGGGALTGGGGTFGGGNLQTGGGTFGTANLTTAGGTFGGGNLQPQNGTFGNNNLPATGGNFGQTNLAAPQGNFGGTNLNAASGAFGQKPLSANGVLTKPNEKNLCYAISNGTDFCIFELALTQRKLVKAGQLKPGAQAGGQFGQPALNTQGGAFGGGGLATTPGNFGGAQLNTTGGTFGGQNLQAGGGNFGAPNLAAATGAFGAGNLNTQGGAFGAKPLATGGGQFGQPALTQAGGQFGNTALPAGGGTFGGATLTPGGGAFGGNTLATGGGQFGGNTLGATGGPFGGQQLNNQGGAFGNTNLNTGGGTFGGATLTTGGGGFGGSTLATGGGQFGGASLPAAGGPFGGAALQQNSGAFGGATLGQTGGQFGGATLQQGGGSFGQTALNPGGGAFGAANLTTQPGQFGGNNLAATTS
B6: GLLG_(52 × 12) (other)
chain: GSGLLGNTGGAPAGGLLGNTQTQQGGGLLGQPQQTQGGGLLGQTGATTGGGLLGGATNTAPGGLLGGGGGNPTGGLLGGNNNQQTGGLLGQGTTQTGGGLLGAPQNNQGGGLLGGGTTTTGGGLLGANTQTGGGGLLGGPSQPTTAGLLGSNNPTTGGGLLGQPANTNNGGLLGGQTNNQASGLLGANNQPPTNGLLGNNNKPQTAGLLGGATTTGNTGLLGGANNTGGGGLLGNNTNNPTGGLLGATNPAGGGGLLGGGATTGGGGLLGGGNTQTGGGLLGTANTTTAGGLLGGGNTQPQNGLLGNNNTPATGGLLGQTNNAAPQGLLGGTNNNAASGLLGQKPASANGVLTKPNEKNLCYAISNGTDFCIFELALTQRKLVKAGQLKPGAQAGGLLGQPAQNTQGGLLGGGGAATTPGLLGGAQNNTTGGLLGGQNTQAGGGLLGAPNNAAATGLLGAGNANTQGGLLGAKPAATGGGLLGQPAQTQAGGLLGNTAQPAGGGLLGGATTTPGGGLLGGNTAATGGGLLGGNTQGATGGLLGGQQPNNQGGLLGNTNANTGGGLLGGATTTTGGGLLGGSTGATGGGLLGGASQPAAGGLLGGAAPQQNSGLLGGATAGQTGGLLGGATQQQGGGLLGQTASNPGGGLLGAANATTQPGLLGGNNQAATSC
B7: Atto488-coupled GLFG_(52 × 12) (other)
chain: GSGLFGNTGGAPAGGLFGNTQTQQGGGLFGQPQQTQGGGLFGQTGATTGGGLFGGATNTAPGGLFGGGGGNPTGGLFGGNNNQQTGGLFGQGTTQTGGGLFGAPQNNQGGGLFGGGTTTTGGGLFGANTQTGGGGLFGGPSQPTTAGLFGSNNPTTGGGLFGQPANTNNGGLFGGQTNNQASGLFGANNQPPTNGLFGNNNKPQTAGLFGGATTTGNTGLFGGANNTGGGGLFGNNTNNPTGGLFGATNPAGGGGLFGGGATTGGGGLFGGGNTQTGGGLFGTANTTTAGGLFGGGNTQPQNGLFGNNNTPATGGLFGQTNNAAPQGLFGGTNNNAASGLFGQKPASANGVLTKPNEKNLCYAISNGTDFCIFELALTQRKLVKAGQLKPGAQAGGLFGQPAQNTQGGLFGGGGAATTPGLFGGAQNNTTGGLFGGQNTQAGGGLFGAPNNAAATGLFGAGNANTQGGLFGAKPAATGGGLFGQPAQTQAGGLFGNTAQPAGGGLFGGATTTPGGGLFGGNTAATGGGLFGGNTQGATGGLFGGQQPNNQGGLFGNTNANTGGGLFGGATTTTGGGLFGGSTGATGGGLFGGASQPAAGGLFGGAAPQQNSGLFGGATAGQTGGLFGGATQQQGGGLFGQTASNPGGGLFGAANATTQPGLFGGNNQAATSC
modifications: Atto488 (coupled)

Columns and labels:
[1] = target: the molecule itself; assay: co-sedimentation; centrifugation assay of phase separation of GLFG_(52 × 12) variants at 25 °C, [FG domain] = 10 μM, [NaCl] = 150 mM, 20 mM NaPi pH 6.8, 5 mM DTT; repeated at 100 μM for GAFG, GLLG and GLAG; critical concentration = concentration of the supernatant
[2] = target: T1, prf.GLFG_(52 × 12); assay: partition of Atto488-coupled FG domains into FG particles (confocal laser scanning microscopy); 20 μM unlabelled prf.GLFG_(52 × 12) premixed with 0.5 μM Atto488-labelled species (GAFG: 3 μM); 20 mM NaPi pH 6.8, 150 mM NaCl, 5 mM DTT; 21 °C; apparent partition coefficient = Atto488 signal IN: OUT of the FG particles; details: both partners purified

| Binder | critical concentration for phase separation [1] | partition coefficient [2] |
| --- | --- | --- |
| B1 | 0.1 µM | – |
| B2 | – | > 1000 |
| B3 | 8 µM | – |
| B4 | – | 4 |
| B5 | 0.8 µM | – |
| B6 | > 100 µM | – |
| B7 | – | > 1000 |
